# Test results: the supplement of paper PMC5998384
# Tests used:
# HeLa Kyoto [1] = experiment: solubility in G1/S (NP-40 vs SDS abundance) (log2 ratio); higher = more soluble; conditions: cell cycle stage: G1/S
# HeLa Kyoto [2] = experiment: solubility change mitosis vs G1/S (difference of NP-40 vs SDS log2 ratios) (log2 ratio difference); higher = more soluble in mitosis
# HeLa Kyoto [3] = experiment: thermal stability score vs G1/S (z-score of summed log2 fold changes over temperatures); higher = more thermally stable than in G1/S
# [4] = cell cycle stage: early G1 (4.5 h after nocodazole release)
# 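Wherever solubility change mitosis vs G1/S (difference of NP-40 vs SDS log2 ratios) is given: synchronized HeLa Kyoto cells (double thymidine block for G1/S, nocodazole release for mitosis), protein amounts in NP-40 versus SDS lysates quantified by mass spectrometry, three biological replicates.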
# 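Wherever solubility in G1/S (NP-40 vs SDS abundance) is given: HeLa Kyoto cells arrested at G1/S by double thymidine block, proteins quantified by TMT10plex mass spectrometry in mild NP-40 versus SDS extracts, three biological replicates.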
# 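Wherever thermal stability score vs G1/S (z-score of summed log2 fold changes over temperatures) is given: synchronized HeLa Kyoto cells, proteins quantified by TMT10plex mass spectrometry, three biological replicates, mitosis taken 0.5 h after nocodazole release, G1/S directly after double thymidine block.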
Sequence,solubility in G1/S (log2) (HeLa Kyoto [1]),solubility change mitosis (log2) (HeLa Kyoto [2]),thermal stability score (HeLa Kyoto [3]; [4]),thermal stability score (HeLa Kyoto [3]; cell cycle stage: mitosis)
MLPFLLATLGTTALNNSNPKDYCYSARIRSTVLQGLPFGGVPTVLALDFMCFLALLFLFSILRKVAWDYGRLALVTDADRLRRQERDRVEQEYVASAMHGDSHDRYERLTSVSSSVDFDQRDNGFCSWLTAIFRIKDDEIRDKCGGDAVHYLSFQRHIIGLLVVVGVLSVGIVLPVNFSGDLLENNAYSFGRTTIANLKSGNNLLWLHTSFAFLYLLLTVYSMRRHTSKMRYKEDDLVKRTLFINGISKYAESEKIKKHFEEAYPNCTVLEARPCYNVARLMFLDAERKKAERGKLYFTNLQSKENVPTMINPKPCGHLCCCVVRGCEQVEAIEYYTKLEQKLKEDYKREKEKVNEKPLGMAFVTFHNETITAIILKDFNVCKCQGCTCRGEPRPSSCSESLHISNWTVSYAPDPQNIYWEHLSIRGFIWWLRCLVINVVLFILLFFLTTPAIIITTMDKFNVTKPVEYLNNPIITQFFPTLLLWCFSALLPTIVYYSAFFEAHWTRSGENRTTMHKCYTFLIFMVLLLPSLGLSSLDLFFRWLFDKKFLAEAAIRFECVFLPDNGAFFVNYVIASAFIGNAMDLLRIPGLLMYMIRLCLARSAAERRNVKRHQAYEFQFGAAYAWMMCVFTVVMTYSITCPIIVPFGLMYMLLKHLVDRYNLYYAYLPAKLDKKIHSGAVNQVVAAPILCLFWLLFFSTMRTGFLAPTSMFTFVVLVITIVICLCHVCFGHFKYLSAHNYKIEHTETDTVDPRSNGRPPTAAAVPKSAKYIAQVLQDSEVDGDGDGAPGSSGDEPPSSSSQDEELLMPPDALTDTDFQSCEDSLIENEIHQ [TMEM63B],-0.0696,-0.109,-2.78,-2.41
MLPRRLLAAWLAGTRGGGLLALLANQCRFVTGLRVRRAQQIAQLYGRLYSESSRRVLLGRLWRRLHGRPGHASALMAALAGVFVWDEERIQEEELQRSINEMKRLEEMSNMFQSSGVQHHPPEPKAQTEGNEDSEGKEQRWEMVMDKKHFKLWRRPITGTHLYQYRVFGTYTDVTPRQFFNVQLDTEYRKKWDALVIKLEVIERDVVSGSEVLHWVTHFPYPMYSRDYVYVRRYSVDQENNMMVLVSRAVEHPSVPESPEFVRVRSYESQMVIRPHKSFDENGFDYLLTYSDNPQTVFPRYCVSWMVSSGMPDFLEKLHMATLKAKNMEIKVKDYISAKPLEMSSEAKATSQSSERKNEGSCGPARIEYA [STARD7],0.128,-0.155,-1.31,-0.89
MLQNPQEKSQAYPRRRRPGCYAYRQNPEAIAAAAMYTFLPDNFSPAKPKPSKDLKPLLGSAVLGLLLVLAAVVAWCYYSVSLRKAERLRAELLDLKAGGFSIRNQKGEQVFRLAFRSGALDLDSCSRDGALLGCSLTADGLPLHFFIQTVRPKDTVMCYRVRWEEAAPGRAVEHAMFLGDAAAHWYGGAEMRTQHWPIRLDGQQEPQPFVTSDVYSSDAAFGGILERYWLSSRAAAIKVNDSVPFHLGWNSTERSLRLQARYHDTPYKPPAGRAAAPELSYRVCVGSDVTSIHKYMVRRYFNKPSRVPAPEAFRDPIWSTWALYGRAVDQDKVLRFAQQIRLHHFNSSHLEIDDMYTPAYGDFDFDEVKFPNASDMFRRLRDAGFRVTLWVHPFVNYNSSRFGEGVERELFVREPTGRLPALVRWWNGIGAVLDFTHPKARDWFQGHLRRLRSRYSVASFKFDAGEVSYLPRDFSTYRPLPDPSVWSRRYTEMALPFFSLAEVRVGYQSQNISCFFRLVDRDSVWGYDLGLRSLIPAVLTVSMLGYPFILPDMVGGNAVPQRTAGGDVPERELYIRWLEVAAFMPAMQFSIPPWRYDAEVVAIAQKFAALRASLVAPLLLELAGEVTDTGDPIVRPLWWIAPGDETAHRIDSQFLIGDTLLVAPVLEPGKQERDVYLPAGKWRSYKGELFDKTPVLLTDYPVDLDEIAYFTWAS [KIAA1161],0.099,-0.254,-4.62,-3.21
MLVGQGAGLLGPAVVTAAVVLLLSGVGPAHGSEDIVVGCGGFVKSDVEINYSLIEIKLYTKHGTLKYQTDCAPNNGYFMIPLYDKGDFILKIEPPLGWSFEPTTVELHVDGVSDICTKGGDINFVFTGFSVNGKVLSKGQPLGPAGVQVSLRNTGTEAKIQSTVTQPGGKFAFFKVLPGDYEILATHPTWALKEASTTVRVTNSNANAASPLIVAGYNVSGSVRSDGEPMKGVKFLLFSSLVTKEDVLGCNVSPVPGFQPQDESLVYLCYTVSREDGSFSFYSLPSGGYTVIPFYRGERITFDVAPSRLDFTVEHDSLKIEPVFHVMGFSVTGRVLNGPEGDGVPEAVVTLNNQIKVKTKADGSFRLENITTGTYTIHAQKEHLYFETVTIKIAPNTPQLADIVATGFSVCGRISIIRFPDTVKQMNKYKVVLSSQDKDKSLVTVETDAHGSFCFKAKPGTYKVQVMVPEAETRAGLTLKPQTFPLTVTDRPVMDVAFVQFLASVSGKVSCLDTCGDLLVTLQSLSRQGEKRSLQLSGKVNAMTFTFDNVLPGKYKISIMHEDWCWKNKSLEVEVLEDDVSAVEFRQTGYMLRCSLSHAITLEFYQDGNGRENVGIYNLSKGVNRFCLSKPGVYKVTPRSCHRFEQAFYTYDTSSPSILTLTAIRHHVLGTITTDKMMDVTVTIKSSIDSEPALVLGPLKSVQELRREQQLAEIEARRQEREKNGNEEGEERMTKPPVQEMVDELQGPFSYDFSYWARSGEKITVTPSSKELLFYPPSMEAVVSGESCPGKLIEIHGKAGLFLEGQIHPELEGVEIVISEKGASSPLITVFTDDKGAYSVGPLHSDLEYTVTSQKEGYVLTAVEGTIGDFKAYALAGVSFEIKAEDDQPLPGVLLSLSGGLFRSNLLTQDNGILTFSNLSPGQYYFKPMMKEFRFEPSSQMIEVQEGQNLKITITGYRTAYSCYGTVSSLNGEPEQGVAMEAVGQNDCSIYGEDTVTDEEGKFRLRGLLPGCVYHVQLKAEGNDHIERALPHHRVIEVGNNDIDDVNIIVFRQINQFDLSGNVITSSEYLPTLWVKLYKSENLDNPIQTVSLGQSLFFHFPPLLRDGENYVVLLDSTLPRSQYDYILPQVSFTAVGYHKHITLIFNPTRKLPEQDIAQGSYIALPLTLLVLLAGYNHDKLIPLLLQLTSRLQGVGALGQAASDNSGPEDAKRQAKKQKTRRTLRLQEEFQLMWCLVPWRGTLGIHLFSSLPFASEILLETTATCIHY [NOMO2],-0.0617,-0.136,-0.17,-0.401
MNLAEICDNAKKGREYALLGNYDSSMVYYQGVMQQIQRHCQSVRDPAIKGKWQQVRQELLEEYEQVKSIVSTLESFKIDKPPDFPVSCQDEPFRDPAVWPPPVPAEHRAPPQIRRPNREVRPLRKEMAGVGARGPVGRAHPISKSEKPSTSRDKDYRARGRDDKGRKNMQDGASDGEMPKFDGAGYDKDLVEALERDIVSRNPSIHWDDIADLEEAKKLLREAVVLPMWMPDFFKGIRRPWKGVLMVGPPGTGKTMLAKAVATECGTTFFNVSSSTLTSKYRGESEKLVRLLFEMARFYAPTTIFIDEIDSICSRRGTSDEHEASRRVKSELLIQMDGVGGALENDDPSKMVMVLAATNFPWDIDEALRRRLEKRIYIPLPTAKGRAELLKINLREVELDPDIQLEDIAEKIEGYSGADITNVCRDASLMAMRRRINGLSPEEIRALSKEELQMPVTKGDFELALKKIAKSVSAADLEKYEKWMVEFGSA [KATNAL1],0.0559,0.119,1.07,0.457
MPEESSPRRTPQSIPYQDLPHLVNADGQYLFCRYWKPTGTPKALIFVSHGAGEHSGRYEELARMLMGLDLLVFAHDHVGHGQSEGERMVVSDFHVFVRDVLQHVDSMQKDYPGLPVFLLGHSMGGAIAILTAAERPGHFAGMVLISPLVLANPESATTFKVLAAKVLNLVLPNLSLGPIDSSVLSRNKTEVDIYNSDPLICRAGLKVCFGIQLLNAVSRVERALPKLTVPFLLLQGSADRLCDSKGAYLLMELAKSQDKTLKIYEGAYHVLHKELPEVTNSVFHEINMWVSQRTATAGTASPP [MGLL],0.347,-0.16,0.0154,-0.539
MPLELTQSRVQKIWVPVDHRPSLPRSCGPKLTNSPTVIVMVGLPARGKTYISKKLTRYLNWIGVPTKVFNVGEYRREAVKQYSSYNFFRPDNEEAMKVRKQCALAALRDVKSYLAKEGGQIAVFDATNTTRERRHMILHFAKENDFKAFFIESVCDDPTVVASNIMEVKISSPDYKDCNSAEAMDDFMKRISCYEASYQPLDPDKCDRDLSLIKVIDVGRRFLVNRVQDHIQSRIVYYLMNIHVQPRTIYLCRHGENEHNLQGRIGGDSGLSSRGKKFASALSKFVEEQNLKDLRVWTSQLKSTIQTAEALRLPYEQWKALNEIDAGVCEELTYEEIRDTYPEEYALREQDKYYYRYPTGESYQDLVQRLEPVIMELERQENVLVICHQAVLRCLLAYFLDKSAEEMPYLKCPLHTVLKLTPVAYGCRVESIYLNVESVCTHRERSEDAKKGPNPLMRRNSVTPLASPEPTKKPRINSFEEHVASTSAALPSCLPPEVPTQLPGQNMKGSRSSADSSRKH [PFKFB3],0.239,-0.103,2.73,0.713
MPPKTPRKTAATAAAAAAEPPAPPPPPPPEEDPEQDSGPEDLPLVRLEFEETEEPDFTALCQKLKIPDHVRERAWLTWEKVSSVDGVLGGYIQKKKELWGICIFIAAVDLDEMSFTFTELQKNIEISVHKFFNLLKEIDTSTKVDNAMSRLLKKYDVLFALFSKLERTCELIYLTQPSSSISTEINSALVLKVSWITFLLAKGEVLQMEDDLVISFQLMLCVLDYFIKLSPPMLLKEPYKTAVIPINGSPRTPRRGQNRSARIAKQLENDTRIIEVLCKEHECNIDEVKNVYFKNFIPFMNSLGLVTSNGLPEVENLSKRYEEIYLKNKDLDARLFLDHDKTLQTDSIDSFETQRTPRKSNLDEEVNVIPPHTPVRTVMNTIQQLMMILNSASDQPSENLISYFNNCTVNPKESILKRVKDIGYIFKEKFAKAVGQGCVEIGSQRYKLGVRLYYRVMESMLKSEEERLSIQNFSKLLNDNIFHMSLLACALEVVMATYSRSTSQNLDSGTDLSFPWILNVLNLKAFDFYKVIESFIKAEGNLTREMIKHLERCEHRIMESLAWLSDSPLFDLIKQSKDREGPTDHLESACPLNLPLQNNHTAADMYLSPVRSPKKKGSTTRVNSTANAETQATSAFQTQKPLKSTSLSLFYKKVYRLAYLRLNTLCERLLSEHPELEHIIWTLFQHTLQNEYELMRDRHLDQIMMCSMYGICKVKNIDLKFKIIVTAYKDLPHAVQETFKRVLIKEEEYDSIIVFYNSVFMQRLKTNILQYASTRPPTLSPIPHIPRSPYKFPSSPLRIPGGNIYISPLKSPYKISEGLPTPTKMTPRSRILVSIGESFGTSEKFQKINQMVCNSDRVLKRSAEGSNPPKPLKKLRFDIEGSDEADGSKHLPGESKFQQKLAEMTSTRTRMQKQKMNDSMDTSNKEEK [RB1],0.147,-0.0546,0.441,2.18
MQRRRRPPPPTSRLPEGCGGGGGGSEEVEVQFSAGRWGSAAAVSAAAAAATRSTEEEEERLEREHFWKIINAFRYYGTSMHERVNRTERQFRSLPANQQKLLPQFLLHLDKIRKCIDHNQEILLTIVNDCIHMFENKEYGEDGNGKIMPASTFDMDKLKSTLKQFVRDWSETGKAERDACYQPIIKEILKNFPKERWDPSKVNILVPGAGLGRLAWEIAMLGYACQGNEWSFFMLFSSNFVLNRCSEINKYKLYPWIHQFSNNRRSADQIRPIFFPDVDPHSLPPGSNFSMTAGDFQEIYSECNTWDCIATCFFIDTAHNVIDYIDTIWKILKPGGIWINLGPLLYHFENLANELSIELSYEDIKNVVLQYGFKVEVEKESVLSTYTVNDLSMMKYYYECVLFVVRKPQ [CARNMT1],-0.164,-0.117,1.2,1.42
